According to patent US20040259198:

Target: T1, recombinant human MAT II β subunit protein with N-terminal poly-His tag, expressed in E. coli from pQE-30 (Clone 5)
T1 chain: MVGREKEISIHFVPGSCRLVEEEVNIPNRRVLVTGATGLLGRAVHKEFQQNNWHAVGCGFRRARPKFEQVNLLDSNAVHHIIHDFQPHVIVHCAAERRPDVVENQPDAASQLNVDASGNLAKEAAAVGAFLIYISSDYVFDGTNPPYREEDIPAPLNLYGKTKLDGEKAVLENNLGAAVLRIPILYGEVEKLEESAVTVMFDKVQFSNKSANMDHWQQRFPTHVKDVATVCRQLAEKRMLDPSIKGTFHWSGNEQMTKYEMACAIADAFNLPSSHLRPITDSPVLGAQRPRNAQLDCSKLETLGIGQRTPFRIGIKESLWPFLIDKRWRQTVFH

B1: endogenous E. coli MAT α subunit (protein)
chain: AKHLFTSESVSEGHPDKIADQISDAVLDAILEQDPKARVACETYVKTGMVLVGGEITTSAWVDIEEITRNTVREIGYVHSDMGFDANSCAVLSAIGKQSPDINQGVDRADPLEQGAGDQGLMFGYATNETDVLMPAPITYAHRLVQRQAEVRKNGTLPWLRPDAKSQVTFQYDDGKIVGIDAVVLSTQHSEEIDQKSLQEAVMEEIIKPILPAEWLTSATKFFINPTGRFVIGGPMGDCGLTGRKIIVDTYGGMARHGGGAFSGKDPSKVDRSAAYAARYVAKNIVAAGLADRCEIQVSYAIGVAEPTSIMVETFGTEKVPSEQLTLLVREFFDLRPYGLIQMLDLLHPIYKETAAYGHFGREHFPWEKTDKAQLLRDAAGLK
Km of MAT for L-methionine: This association changed the kinetic properties of the enzyme and lowered the Km of MAT for L-methionine
